In article PMC4287183, “Affinity maturation of Cry1Aa toxin to the Bombyx mori cadherin-like receptor by directed evolution based on phage display and biopanning selections of domain II loop 2 mutant toxins” (MicrobiologyOpen, 2014):

Columns and labels:
[1] = molecular target: Cry1Aa toxin-binding region of Bombyx mori cadherin-like receptor BtR175 (BtR175-TBR) (Bombyx mori) (UniProt Q9XY09); test: SPR; BtR175-TBR immobilized on a CM5 chip by amine coupling (Biacore J); four concentrations of toxin in PBST (0.005% Tween, pH 7.4) for 120 sec, dissociation 240 sec; 1:1 Langmuir model, global fitting; KD = kd/ka
[2] = molecular target: wild-type Cry1Aa toxin (trypsin-activated) (B. thuringiensis subsp. kurstaki strain …, UniProt P0A366 1-1176, Trypsin-activated toxin core, unmutated wild type. Limits are not printed: the N-terminus at Ile29 follows the conventional trypsin cut after Arg28 (and the IETGYTP start in the phage-display primer),); test: as above; conditions: both partners purified

Cry1Aa domain II loop 2 mutant toxin 371PHRP374 (trypsin-activated) (from UniProt P0A366 1-1176) (ligand)
Kd [1]: 8.3 nM | koff [1]: 0.00122 s⁻¹

Cry1Aa domain II loop 2 mutant toxin 371WGLA374 (trypsin-activated) (from UniProt P0A366 1-1176) (ligand)
Kd [1]: 1.56 nM | koff [1]: 0.00061 s⁻¹

Cry1Aa domain II loop 2 mutant toxin 371WPHH374 (trypsin-activated) (from UniProt P0A366 1-1176) (ligand)
Kd [1]: 1.55 nM | koff [1]: 0.00066 s⁻¹

Cry1Aa domain II loop 2 mutant toxin 371WRPQ374 (trypsin-activated) (from UniProt P0A366 1-1176) (ligand)
Kd [1]: 0.5 nM | koff [1]: 0.00102 s⁻¹

B1: Cry1Aa toxin-binding region of Bombyx mori cadherin-like receptor BtR175 (BtR175-TBR) (domain or fragment)
chain: ELVIRPYNFHAPVFVFPKHGATLRLARERAVVNGLLATVDGEFLNRIVATDEDGLHAGQVAFEVVGDTEAVDYFHIVNDGENSGTLMLKQLFPEDIREFEVTIRATDGGTEPRPLSTDCTFSVVFVPIQGEPIFPTSTHTVAFIEKEAGLLERHELPRAEDRKNHLCSDDCHNIYYRIIDGNNDGHFGLDETTNVLFLVKELDRSVSETYTLTIAASNSPTGGIALTSTITITVNVREADPQPYFVRDLYTAGISTSDSINRELLILQATHSENAPIIYTIDWSTMVTDPTLASVRETAFILNPHTGVLTLNIQPTASMHGMFEFQVVATDPAGYSDRANVKIYLISTRNRVFFLFV
notes: The limits are stated for the GST fusion used in biopanning; also called GST-BtR175-TBR; source: prepared as described previously (Fujii et al. 2013); GST-BtR175-TBR from pGEX4t-3, harvested as inclusion bodies and solubilized
Kd [2]: 25 nM | koff [2]: 0.00267 s⁻¹
